How the values were obtained:
[1] = test system: potato ga20ox1 promoter (P1, P2, P3) and first intron; assay: Gel retardation assay with ga20ox1 promoter regions and first intron; assay type: binding
Description: The first intron with partial flanking exon sequence (450 bp) of potato ga20ox1 and its promoter (981 bp, provided by Dr. Salomé Prat, CSIC Cantoblanco Campus, Univ. of Madrid, Spain) were used for gel mobility shift assays. Polymerase chain reaction (PCR) was used to amplify three regions of the promoter: -981 to 636 (P1), -660 to 307 (P2), and -331 to 0 (P3). About a 25-bp overlap was maintained between P1 and P2 or P2 and P3 in the chance that the protein-binding site would span the overlapped region. The first intron of this gene was amplified from potato genomic DNA by using PCR and the oligos 5′-[…]-3′ (SEQ ID NO:21) and 5′-[…]-3′ (SEQ ID NO:22) as primers. These primers were designed based on the site of the first intron of the tobacco GA20 oxidase gene Ntc12. The four fragments were purified on a 1.4% agarose gel and labeled with α^32P-dATP using Klenow fragment. […]
In the competition assays, unlabeled double-stranded DNA fragments (10×, 25×, 50×, 100×) were incubated with the recombinant protein before the addition of the radioactive probe. The dissociation rates were determined by adding 500-fold more cold DNA fragments to the DNA-binding reactions that were being incubated on ice, and loaded onto the running gel every 10 minutes. […]

CaMV 35S promoter = assay: Transcription assay, GUS reporter driven by CaMV 35S promoter in tobacco protoplasts; assay type: cell-based, cauliflower mosaic virus
Description: FIGS. 24A-C show schematics of constructs (FIG. 24A) and the repression effect of StBEL-05 and POTH1 on the ga20ox1 promoter (FIG. 24B) and on the 35S CaMV promoter (FIG. 24C). The construct with the LUC gene under the control of the cauliflower mosaic virus (CaMV) 35S promoter was used as an internal control. Each transfection was performed three times. Relative GUS-LUC activity was calculated with reporter alone set as 100%. Data are means±SE.
For each transfection analysis, 700 μL of tobacco protoplasts (prepared as described above) were mixed with 30 μL 2 M KCl and plasmid DNA in an electroporation cuvette with 0.4-cm electrode gap. […]
(§1) Luciferase assays were performed by injecting 100-μL luciferase substrate (Promega, Madison, Wis.) into 20 μL of extract and measuring the emitted photons for 15 seconds in a TD-20 luminometer (Turner Designs, Sunnyvale, Calif.). […] A fluorescence multiwell plate reader, Fluoroskan II (MTX labs, Vienna, Va.), was used to measure GUS activity at 365 nm (excitation) and 455 nm (emission). Each sample was measured three times for both LUC and GUS activity. Relative GUS-LUC activity was calculated by dividing the ratio of GUS activity to LUC activity from different effectors with the ratio from reporter plasmid alone. Relative activities calculated from three transfection replications were presented as a mean±SE.

POTH1 = assay: In vitro binding assay (immunoprecipitation) with POTH1; set-up: species or system Solanum tuberosum; details: in vitro
Description: In vitro binding experiments were performed as described by Ni et al., “PIF3, a Phytochrome-Interacting Factor Necessary for Normal Photoinduced Signal Transduction, is a Novel Basic Helix-Loop-Helix Protein,” Cell 95:657-667 (1998), which is hereby incorporated by reference in its entirety. The full-length sequence for POTH1 was cloned into a pET17b/GAD fusion cassette and transcribed under the control of the T7 promoter. […] Each 50 μl TnT reaction contained 2.0 μg of template plasmid DNA and 20 μmol (20 μCi) of labeled ^35S-methionine. The POTH1:GAD/BEL complex was immunoprecipitated with anti-GAD antibodies (Santa Cruz Biotechnology, Calif.). The proteins from the pellet (one-half the fraction) and for the prey (one-fourth of the reaction volume) were resolved on a 10% SDS-PAGE gel and visualized by autoradiography.

ga20ox1 promoter = assay: Transcription assay, GUS reporter driven by ga20ox1 promoter in tobacco protoplasts; assay type: cell-based, potato
Description: The cauliflower mosaic virus (CaMV) 35S promoter in pBI221 (Clontech, Palo Alto, Calif.) was replaced by an enhancer fragment (-832 to -50) of the 35S promoter plus 980 bp of the ga20ox1 promoter to generate the pGAOP::β-glucuronidase (GUS) reporter construct. With this construct, the reporter GUS transcription level is augmented but its transcription may still be affected by the ga20ox1 promoter. A CaMV 35S promoter-driven luciferase (LUC) construct 35S-LUC (obtained from Dr. Takahashi, Dept. of Biological Sciences, Graduate School of Science, Univ. of Tokyo, Japan) was used as an internal control. Effector constructs were also generated by using pBI221 vector as a backbone, with the GUS gene replaced by the full-length cDNAs of either StBEL-05 or POTH1, downstream of the CaMV 35S promoter. Truncated cDNAs that encode the N-terminal protein-binding domains of StBEL-05 or POTH1 were used to generate the dominant negative constructs, StBEL5ΔC295 and POTH1ΔC122, respectively. The reporter construct with the mutated promoter was generated by site-directed PCR mutagenesis with oligos 5′-CTATTTGACTTC*ACACGGTTATTT-3′ (SEQ ID NO:23) and 5′-AAATAACCGTGTG*AAGTCAAATAG-3′ (SEQ ID NO:24).
Fully expanded leaves from three- to four-week-old tobacco plants were excised and placed in K3 basal media (Kao et al., “Nutritional Requirements for Growth of Vicia hajastana Cells and Protoplasts at a Very Low Density in Liquid Media,” Planta 126:105-110 (1975), which is hereby incorporated by reference in its entirety) supplemented with 0.4 M sucrose, 0.25% (w-v) cellulases (Karlan Research Products, Santa Rosa, CA), and 0.05% (w-v) macerases (Calbiochem, La Jolla, Calif.) and incubated for overnight at 28° C. After incubation, the liberated protoplasts were filtered through sterile cheesecloth into a Babcock bottle, and centrifuged for 10 minutes at 1000 rpm. Protoplasts were collected from the bottleneck area and washed once in K3 media with 0.4 M sucrose and resuspended in K3 media containing 0.4 M glucose to a final concentration of 4×10^6 protoplasts per milliliter. […]
as §1

B1: POTH1: KNOX transcription factor of potato, SEQ ID NO:17, 345 residues (protein, listed as Solanum tuberosum)
chain: MDDEMYGFHSTRDDYADKALMSPENLMMQTEYNNFHNYTNSSILTSNPMMFGSDDIQLSSEQTNSFSTMTLQNNDNIYQIRSGNCGGGSGSGGSSKDHNDNNNNNEDYDEDGSNVIKAKIVSHPYYPKLLNAYIDCQKVGAPAGIVNLLEEIRQQTDFRKPNATSICIGADPELDEFMETYCDILLKYKSDLSRPFDEATTFLNKIEMQLGNLCKDDGGVSSDEELSCGEADASMRSEDNELKDRLLRKFGSHLSSLKLEFSKKKKKGKLPKEARQMLLAWWDDHFRWPYPTEADKNSLAESTGLDPKQINNWFINQRKRHWKPSENMQLAVMDNLSSQFFSSDD
[1]
  binding to ga20ox1 regulatory regions (mobility shift): only formed a complex with P1
CaMV 35S promoter
  effect on the activity of the CaMV 35S promoter: Neither StBEL-05 nor POTH1 showed any effect
POTH1
  homodimer formation: did not form homodimers in vitro
ga20ox1 promoter; co-transfected effector, reporter alone = 100%
  relative GUS-LUC activity of the pGAOP::GUS reporter construct: decreased by more than half
ga20ox1 promoter; mutated ga20ox1 promoter
  repression of promoter activity, reporter with point mutation in the binding site: no detectable repression

— US7265263B1, “Potato transcription factors, methods of use thereof, and a method for enhancing tuber development” (Iowa State University Research Foundation, Inc., priority 2002, dated 2007)
